The values that follow come from publication PMC10347550 (2023).

The target in the assay is integrin αIIbβ3 (Homo sapiens, UniProt P08514). The assay can be described thus: tryptophan fluorescence quenching (Stern-Volmer).
In turn, Ac-MRGDH-NH2 (also: Met and His coordinated to Λ-Ru(Ph2phen)2, Cl2 salt) [Λ-[Ru(Ph2phen)2(Ac-MRGDH-NH2)]Cl2 (Λ-[1]Cl2)] returned a Kd of 61 nM.
The same measure for Ac-MRADH-NH2 (also: Met and His coordinated to Δ-Ru(Ph2phen)2, dichloride salt) [Δ-[Ru(Ph2phen)2(Ac-MRADH-NH2)]Cl2 (Δ-[3]Cl2)]: 112 nM; for Ac-MRGDH-NH2 (also: Met and His coordinated to Δ-Ru(Ph2phen)2, Cl2 salt) [Δ-[Ru(Ph2phen)2(Ac-MRGDH-NH2)]Cl2 (Δ-[1]Cl2)]: 83 nM.

As a reminder, the Kd is the equilibrium constant for the complex coming apart. Read a high Kd as weaker binding.
